Usually Ki stands for the equilibrium dissociation constant of an inhibitor or competing ligand from its target. A word on the EC50: it is the concentration needed to bring the measured effect to its halfway point. The half-life is the time in which the quantity being followed falls by half. Broadly, the Vss is a proportionality between amount in the body and measured concentration, not a real space. One may read the Cmax as the highest concentration seen after dosing. By MRT is commonly meant the average time that molecules of a dose stay in the body. One may read the Tmax as the time at which the peak concentration occurs.

Values joined by “and” are separate entries in the source; they are usually repeats but may differ in a detail not shown here. Identical values can stand only once. Like-named read-outs stand apart in the source and are kept apart here. Marks after values point to notes of the source that are not given here. Ends that are not written are not given here.

The values below come from patent publication US20110166063A1 (priority 2008, published 2011).

Data set [1] is classed as physicochemical.
The next data set has as its target human μ opioid receptor (Homo sapiens, UniProt P35372). Briefly: Radioligand competition binding assay, biphalin series, μ opioid receptor. The method, then: (§1) Competition binding experiments were conducted by incubating membrane protein to equilibrium in triplicate in the presence of a fixed concentration of radioligand and increasing concentrations (0.1 nM to 10 μM) of test compound in 100 μL final volume. The radioligands used were specific for each receptor type, and the assay conditions are described in Table BIP6.3. Following incubations, the membranes were rapidly filtered through GF/B filter plate (presoaked with 0.5% polyethyleneimine), washed four times with cold 50 mM Tris-HCl, pH 7.5, and the bound radioactivity was then measured. Non-specific binding was measured in the presence of excess naloxone (100 μM); this value was subtracted from the total binding to yield the specific binding at each test concentration.
(§2) The test compounds were stored under acidic condition to stabilize the PEG conjugation.
(§3) Ki (affinity of test compound) was obtained using the Cheng Prusoff correction using experimental Kd (affinity of radioligand) values that were previously determined under these assay conditions.

Data set [2] has as its target T1, GPR54 G-Protein coupled receptor (Homo sapiens, UniProt Q969F8).
T1 construct: host or cells: Chem-1 host cells
The data set is described as follows: FLIPR calcium flux agonist assay on GPR54. Format: cell-based. Conditions: no release incubation; for EC50 / EC50 (nM): agonist activation at GPR54. Background: Calcium assays in cells follow changes in intracellular calcium, usually with a dye or a luminescent sensor.

Data set [3] in a line: OGF release rate and stability of OGF. The format is physicochemical. The settings on record: 160 hours at 37° C., pH 7.5 and 16 hours at 37° C., pH 10.0.
A further data set deals with human δ opioid receptor (Homo sapiens, UniProt P41143). The data set is described as follows: Radioligand competition binding assay, biphalin series, δ opioid receptor. The method, then: as §1, §2, §3
Chain of human δ opioid receptor (P41143 whole entry): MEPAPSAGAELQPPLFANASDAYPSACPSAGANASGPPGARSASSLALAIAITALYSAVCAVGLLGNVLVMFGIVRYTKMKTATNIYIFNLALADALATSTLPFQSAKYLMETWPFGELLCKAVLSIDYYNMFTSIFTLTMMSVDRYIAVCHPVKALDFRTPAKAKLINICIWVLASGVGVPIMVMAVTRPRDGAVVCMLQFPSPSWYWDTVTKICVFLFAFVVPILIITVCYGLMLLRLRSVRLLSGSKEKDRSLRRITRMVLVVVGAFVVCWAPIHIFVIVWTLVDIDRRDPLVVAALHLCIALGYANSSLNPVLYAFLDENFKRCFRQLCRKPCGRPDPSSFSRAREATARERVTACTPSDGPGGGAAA
(In general: Displacement assays read how much labelled ligand stays bound in the presence of the test substance.)

For data set [4] the following is noted: due to rapid proteolysis and glomerular filtration; cited from earlier work.
Data set [5] in a line: Pharmacokinetic study of protegrin conjugates, single IV dose in rats. Conditions: […] equivalent protein mass IV. The format is in vivo, Sprague-Dawley rats. The method, then:
The weight range of the animals was 313-346 grams. All animals were food fasted overnight.
Following the last collection point, the animals were euthanized. Bioanalytical analysis: analysis of the plasma samples was conducted using non-validated LC-MS/MS methods.

In data set [6] the test system is rat red blood cells. Briefly: Hemolysis assay, protegrin-1 series. Format: cell-based. Conditions: for hemolytic effect: rat red blood cells, 37° C., relative to 0.25% Triton X-100.
Description: Approximately 10 mL of blood was drawn from one adult rat into Na Heparin tube and kept in ice until use. Red blood cells were washed three times with 10 mL of cold DPBS ((−) CaCl2 and (−) MgCl2) and collected by sequential centrifugation at 3,000 g for 5 min at 4° C. Pellets of red blood cells were resuspended with DPBS ((−) CaCl2 and (−) MgCl2) and the total volume was brought up to initial volume of blood drawn. One mL of resuspended red blood cells was resuspended with 49 mL of DPBS ((−) CaCl2 and (−) MgCl2). Incubation mixture was prepared by 400 fold dilution of stock solution of test compounds with final volume of 800 μl. Final concentration of test compounds was equimolar to that of respective unconjugated compounds. Hemolysis incubation was done at 37° C. with mild agitation. For releasable conjugates, test compounds were preincubated in 1×PBS at 37° C. prior to hemolysis assay. Incubation mixture was centrifuged at 3,000 g for 5 min at 4° C., and the absorbance at 550 nm was read from supernatant.
Data set [7] deals with rat red blood cells. The data set is described as follows: Hemolysis assay, V681(V13AD) series. Format: cell-based. The settings on record: 37° C., relative to 0.25% Triton X-100.
Description: Hemolysis assay. Approximately 10 mL of blood was drawn from one adult rat into Na Heparin tube and kept in ice until use. Red blood cells were washed three times with 10 mL of cold DPBS ((−) CaCl2 and (−) MgCl2) and collected by sequential centrifugation at 3,000 g for 5 min at 4° C. Pellets of red blood cells were resuspended with DPBS ((−) CaCl2 and (−) MgCl2) and the total volume was brought up to initial volume of blood drawn. One mL of resuspended red blood cells was resuspended with 49 mL of DPBS ((−) CaCl2 and (−) MgCl2). Incubation mixture was prepared by 400 fold dilution of stock solution of test compounds with final volume of 800 μl. Final concentration of test compounds was equimolar to that of respective unconjugated compounds. Hemolysis incubation was done at 37° C. with mild agitation.
For releasable conjugates, test compounds were preincubated in 1×PBS at 37° C. prior to hemolysis assay. Incubation mixture was centrifuged at 3,000 g for 5 min at 4° C., and the absorbance at 550 nm was read from supernatant.
Data set [8] in a line: Pharmacokinetic study of V681 (V13AD) conjugates, single IV dose in rats. Format: in vivo, Sprague-Dawley rats. The settings on record: 1.0 mg/kg equivalent protein mass IV. From the text: The weight range of the animals was 311-346 grams. All animals were food fasted overnight. […] The predose sample was collected from the JVC.
Following the last collection point, the animals were euthanized.

For data set [9] the following is noted: pH 5.
[10] abbreviates: Pre-incubated in assay buffer pH 7.5 at 37° C. (72 h biphalin and di-CAC; 20 h di-C2 and di-SBC).
Setting [11] is: sample diluted on the day of the assay (unreleased).
Where [12] appears, read: test compound in plasma (non-releasable conjugates, native PG-1), Mean ± SD.
Setting [13] is: protegrin-1 in plasma (released or native).

Chain of human μ opioid receptor (P35372 whole entry): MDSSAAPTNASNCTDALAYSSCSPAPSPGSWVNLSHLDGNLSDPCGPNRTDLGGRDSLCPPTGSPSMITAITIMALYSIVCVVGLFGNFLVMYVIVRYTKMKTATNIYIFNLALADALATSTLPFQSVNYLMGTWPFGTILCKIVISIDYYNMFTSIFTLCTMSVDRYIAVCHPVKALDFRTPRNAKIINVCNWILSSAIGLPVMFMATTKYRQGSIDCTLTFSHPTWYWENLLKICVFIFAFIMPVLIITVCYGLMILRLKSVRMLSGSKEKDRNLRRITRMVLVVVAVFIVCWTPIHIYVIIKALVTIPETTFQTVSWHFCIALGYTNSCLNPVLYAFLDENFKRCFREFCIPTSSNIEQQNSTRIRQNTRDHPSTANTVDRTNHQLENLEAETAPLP
T1 sequence (Q969F8 whole entry): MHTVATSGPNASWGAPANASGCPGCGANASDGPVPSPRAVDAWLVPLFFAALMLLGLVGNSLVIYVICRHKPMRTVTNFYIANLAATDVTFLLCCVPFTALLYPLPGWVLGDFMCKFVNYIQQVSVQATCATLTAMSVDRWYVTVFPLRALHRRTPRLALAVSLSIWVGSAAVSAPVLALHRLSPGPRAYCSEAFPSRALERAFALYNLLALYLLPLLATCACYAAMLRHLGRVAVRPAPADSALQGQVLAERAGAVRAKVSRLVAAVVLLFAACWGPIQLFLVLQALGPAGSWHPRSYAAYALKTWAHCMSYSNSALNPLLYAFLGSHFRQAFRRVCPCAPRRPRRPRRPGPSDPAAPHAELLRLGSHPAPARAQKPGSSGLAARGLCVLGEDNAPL

Turning to `C[C@@H](NC(=O)[C@@H](N)Cc1ccc(O)cc1)C(=O)NCC(=O)N[C@@H](Cc1ccccc1)C(=O)NNC(=O)[C@H](Cc1ccccc1)NC(=O)CNC(=O)[C@@H](C)NC(=O)[C@@H](N)Cc1ccc(O)cc1` [Biphalin, reference compound], the “stability of the peptide following incubation” value in data set [1] (72 hour incubation in assay buffer, pH 7.5 at 37° C.) was “remained stable”. Besides, the Ki is 3.1 nM at human μ opioid receptor (setting [10]); 3.4 nM and 4.7 nM at human μ opioid receptor (setting [11]).
For the compound `CC(C)C[C@H](NC(=O)CNC(=O)[C@H](Cc1ccccc1)NC(=O)[C@H](CO)NC(=O)[C@H](CC(N)=O)NC(=O)[C@H](Cc1c[nH]c2ccccc12)NC(=O)[C@H](CC(N)=O)NC(=O)[C@H](Cc1ccc(O)cc1)NC(=O)[C@H](CC(N)=O)NC(=O)[C@@H]1CCCN1C(=O)[C@@H](N)CC(C)C)C(=O)N[C@@H](CCCNC(=N)N)C(=O)N[C@@H](Cc1ccccc1)C(N)=O` [KP13, Kisspeptin-13], in [2], the half-maximal effective concentration (EC50) was found to be 11 nM and the “Fold change compared to metastin” value stood at 1.
Take `CSCC[C@H](NC(=O)[C@H](Cc1ccccc1)NC(=O)CNC(=O)CNC(=O)[C@@H](N)Cc1ccc(O)cc1)C(=O)O` [OGF, Opioid Growth Factor]: in data set [3], the “stability of the peptide following pre-incubation” value was “remained stable”.
For “(C2-20K)2-biphalin [Di-C2-PEG2-FMOC-NHS-20K-biphalin]”, the Ki was determined as 10.1 nM with human μ opioid receptor (setting [10]) and 21.7 nM with human μ opioid receptor (setting [11]).
As to “(CAC-20K)2-biphalin [Di-CAC-PEG2-FMOC-NHS-20K-biphalin]”, the Ki worked out at 13.7 nM in the data set with human μ opioid receptor (setting [10]) and 1120 nM with human μ opioid receptor (setting [11]).
With (SBC-30K)2-biphalin, the “stability of the conjugate” value in data set [1] (purification from the reaction mixture, even at acidic pH values) was “instability”.
For the compound “(SBC-30K)2-biphalin [Di-mPEG-SBC-30K-biphalin]”, the “Ki (nM), δ Opioid Receptor” value with human δ opioid receptor (setting [10]) is “not obtained”.
“(SPA-2K)2-biphalin [Di-mPEG-SPA-2K-biphalin]”: the “inhibition of specific binding at the highest test concentration” value on human δ opioid receptor (10 μM) and at human μ opioid receptor (10 μM) was “no measurable inhibition” each time.
“GHRH: growth hormone releasing hormone, stimulates growth hormone secretion from the anterior pituitary gland”: in data set [4], the half-life is 0.167 to 0.333 h.
For “GTSLSPPPESSGSPQQPGLSAPHSRQIPAPQGAVLVQREKDLPNYNWNSFGLRF-NH2 [KP54, Kisspeptin-54]”, in data set [2], the concentration for a half-maximal effect (EC50) was 190 nM and the “Fold change compared to metastin” value is on record as 16.
As for “[Protegrin-1]-[PEG-di-ButyrAldehyde-5K]-[Protegrin-1] (RGGRLCYCRRRFCVCVGR-NH2; cysteine pairing not given here; also: two peptide copies linked by PEG-dibutyraldehyde 5K; UniProt P32194 131-148, looked up) [PG-1-PEG-5K-PG-1]”, in [5] (setting [12]), the “CL” value was found to be 2.25 ± 0.154 mL/min/kg, the “T1/2” value was 6.8 ± 0.65 h and the “Vss” value was determined as 0.248 ± 0.0221 L/kg. In addition, in the data set on rat red blood cells [6] (listed as PG1-ButyrALD-5K-PG1), the hemolytic effect entry is “little hemolytic activity”. Also, the hemolytic effect result with rat red blood cells [6] (listed as PG1-ButyrALD-PG1) was “almost eliminated”.
Take “[mono]-[mPEG2-20K]-[V681(V13AD)] [NHS-20K-V681 (V13AD)]”: the hemolytic effects result with rat red blood cells [7] is “almost eliminated”. Moreover, in data set [8], the “AUCINF” value came to 53.0 ± 1.1 µg·h/mL, the “CL” value is 0.315 ± 0.0065 mL/min/kg, the “Cmax” value was found to be 5210 ± 211 ng/mL and the “MRT” value came out at 7.6 ± 1.1 h. Moreover, in data set [8], the “T1/2” value was 5.8 ± 1.0 h, the “Vss” value was 0.143 ± 0.0237 L/kg and the “mean AUC as multiple of V681 (V13AD)” value was 24 times.
On to “[mono]-[mPEG-ButyrALD-30K]-[Kisspeptin-13] (LPNYNWNSFGLRF; also: mono-PEGylated with mPEG-ButyrALD 30K, site not given here; UniProt Q15726 109-121, looked up) [Ald30K-KP13]”, for which, in data set [2], the “EC50 (nM)” value is on record as “No activity”.
On to “[mono]-[mPEG-SMB-30K]-[V681(V13AD)] [SMB-30K-V681 (V13AD)]”, for which the hemolytic effects result with rat red blood cells [7] is on record as “almost eliminated”. Moreover, in data set [8], the “AUCINF” value came to 158 ± 43 µg·h/mL, the “CL” value is 0.11 ± 0.0267 mL/min/kg, the “Cmax” value is 4380 ± 505 ng/mL and the “MRT” value turned out to be 38.3 ± 18.2 h. Also, in data set [8], the “T1/2” value was 26.6 ± 12.5 h, the distribution volume (Vss) came out at 0.235 ± 0.05 L/kg and the “mean AUC as multiple of V681 (V13AD)” value was determined as 123 times.
With “dextran-butyraldehyde-40K-protegrin-1 (RGGRLCYCRRRFCVCVGR-NH2; cysteine pairing not given here; also: dextran-butyraldehyde 40K conjugate; UniProt P32194 131-148, looked up) [Dextran-PG1]”, the hemolytic effect entry in the data set on rat red blood cells [6] is listed as “almost eliminated”.
For the compound “mono-[mPEG2-ButyrAldehyde-40K]-[Kisspeptin-54] (GTSLSPPPESSGSPQQPGLSAPHSRQIPAPQGAVLVQREKDLPNYNWNSFGLRF-NH2; also: mPEG2-ButyrAldehyde 40K conjugate, site not given here; UniProt Q15726 68-121, looked up) [Ald40K-KP54]”, in [2], the “EC50 (nM)” value is “No activity”.
Consider “mono-[mPEG2-CAC-FMOC-40K]-[PG-1] (RGGRLCYCRRRFCVCVGR-NH2; cysteine pairing not given here; also: releasable CAC-PEG2-FMOC 40K PEG, mono-conjugate, site not given here; UniProt P32194 131-148, looked up) [CAC-PEG2-FMOC-40K-PG-1, PG1 conjugate with a releasable linker]”, for which, in [5] (setting [13]), the “T1/2 (hr)” value is recorded as 0.13* hr and the time of peak concentration (Tmax) stood at 1.8 min. For the same compound, in the data set with rat red blood cells [6] (conjugate preincubated for 96 hr in 1XPBS at 37° C.), the “hemolytic effects relative to that from PG1” value was 60-70%.
Consider “mono-mPEG-SBC-30K-ziconotide [SBC-ziconotide conjugate]”, for which the “stability of the conjugate” value in data set [9] is “very unstable”.
